The numbers were not newly measured in publication PMC3569056, which cites them from elsewhere.

In general, pKa refers to the negative logarithm of the acid dissociation constant.

The target in this series is Cys22 (UniProt position 23, FIKPTCPYCRR). The series is described as follows: chemical modification.

Consider “Glutaredoxin 1 (hGrx1, thioltransferase) (Homo sapiens)”, for which the pKa was 3.5.
